For the test, the target named is (His)6-Raf-1 protein (UniProt P04049). The experiment in a line: totally cell-free pull-down, anti-Raf-1 immunoblot, densitometry. Background: Immunoblotting shows a protein as a band on a membrane.

B1: FLAG-HMK-IL-2Rβ chain containing only the proline rich C-terminal (CT+) (receptor, not shown: small tags and cut ends)
chain: QPLSGEDDAYCTFPSRDDLLLFSPSLLGGPSPPSTAPGGSGAGEERMPPSLQERVPRDWDPQPLGPPTPGVPDLVDFQPPPELVLREAGEEVPDAGPREGVSFPWSRPPGQGEFRALNARLPLNTDAYLSLQELQGQDPTHLV
Take B1: the % binding to Raf-1 proteins (of the positive control) was in the range of 0 to 10%.

The values above are taken from patent US20010016194A1, “COMPOUNDS THAT INHIBIT THE BINDING OF RAF-1 OR 14-3-3 PROTEINS TO THE BETA CHAIN OF IL-2 RECEPTOR, AND PHARMACEUTICAL COMPOSITIONS CONTAINING SAME” (priority 1999, published 2001).
